This is an account of results in patent US20090191117A1.

In this test the target is αvβ3 and αvβ5 integrins on human umbilical vein endothelial cells (human), P06756. In words: cell-based or functional assay.

B1: CNTO 95 (antibody, V domains shown)
VH: QVQLVESGGGVVQPGRSRRLSCAASGFTFSRYTMHWVRQAPGKGLEWVAVISFDGSNKYYVDSVKGRFTISRDNSENTLYLQVNILRAEDTAVYYCAREARGSYAFDIWGQGTMVTVSS
VL: EIVLTQSPATLSLSPGERATLSCRASQSVSSYLAWYQQKPGQAPRLLIYDASNRATGIPARFSGSGSGTDFTLTISSLEPEDFAVYYCQQRSNWPPFTFGPGTKVDIK
On to B1, for which the HUVEC adhesion to fibrin, percent of adhesion without antibody, antibody at 10 µg/ml amounted to 45.1%; the HUVEC adhesion to fibrinogen, percent of adhesion without antibody, antibody at 10 µg/ml came out at 34.5%; the HUVEC adhesion to gelatin, percent of adhesion without antibody, antibody at 10 µg/ml came to 54.8%; the HUVEC adhesion to vitronectin, percent of adhesion without antibody, antibody at 10 µg/ml came out at 3.3%.
